In series [1] the test system is HeLa Kyoto. The experiment in a line: solubility in G1/S (NP-40 vs SDS abundance) (log2 ratio); higher = more soluble. The conditions noted are these: cell cycle stage: G1/S.
The test system of series [2] is HeLa Kyoto. The experiment in a line: solubility change mitosis vs G1/S (difference of NP-40 vs SDS log2 ratios) (log2 ratio difference); higher = more soluble in mitosis.
For series [3], the system named is HeLa Kyoto. The experiment in a line: thermal stability score vs G1/S (z-score of summed log2 fold changes over temperatures); higher = more thermally stable than in G1/S.
In series [4] the test system is HeLa Kyoto. Briefly: melting temperature (median over replicates), in situ; higher = more thermally stable.
The mark [5] stands for this setting: cell cycle stage: early G1 (4.5 h after nocodazole release).

Consider four sequences from the supplement of paper PMC5998384.
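Throughout, for melting temperature (median over replicates), in situ: HeLa Kyoto cells synchronized by double thymidine or nocodazole block, proteins quantified by TMT10plex mass spectrometry, three independent biological replicates.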
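Throughout, for solubility change mitosis vs G1/S (difference of NP-40 vs SDS log2 ratios): synchronized HeLa Kyoto cells (double thymidine block for G1/S, nocodazole release for mitosis), protein amounts in NP-40 versus SDS lysates quantified by mass spectrometry, three biological replicates.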
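Throughout, for solubility in G1/S (NP-40 vs SDS abundance): HeLa Kyoto cells arrested at G1/S by double thymidine block, proteins quantified by TMT10plex mass spectrometry in mild NP-40 versus SDS extracts, three biological replicates.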
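Throughout, for thermal stability score vs G1/S (z-score of summed log2 fold changes over temperatures): synchronized HeLa Kyoto cells, proteins quantified by TMT10plex mass spectrometry, three biological replicates, mitosis taken 0.5 h after nocodazole release, G1/S directly after double thymidine block.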

Turning to “MPEEMDKPLISLHLVDSDSSLAKVPDEAPKVGILGSGDFARSLATRLVGSGFKVVVGSRNPKRTARLFPSAAQVTFQEEAVSSPEVIFVAVFREHYSSLCSLSDQLAGKILVDVSNPTEQEHLQHRESNAEYLASLFPTCTVVKAFNVISAWTLQAGPRDGNRQVPICGDQPEAKRAVSEMALAMGFMPVDMGSLASAWEVEAMPLRLLPAWKVPTLLALGLFVCFYAYNFVRDVLQPYVQESQNKFFKLPVSVVNTTLPCVAYVLLSLVYLPGVLAAALQLRRGTKYQRFPDWLDHWLQHRKQIGLLSFFCAALHALYSFCLPLRRAHRYDLVNLAVKQVLANKSHLWVEEEVWRMEIYLSLGVLALGTLSLLAVTSLPSIANSLNWREFSFVQSSLGFVALVLSTLHTLTYGWTRAFEESRYKFYLPPTFTLTLLVPCVVILAKALFLLPCISRRLARIRRGWERESTIKFTLPTDHALAEKTSHV [STEAP3]”, the “solubility in G1/S (log2)” value in series [1] was -0.128. Besides, the “solubility change mitosis (log2)” value in series [2] was -0.0119. Besides, the thermal stability score in series [3] (setting [5]) is -0.269; in series [3] (cell cycle stage: mitosis), -2.25. Further, the melting temperature in series [4] (cell cycle stage: G1/S) was 53.3 °C; in series [4] (cell cycle stage: mitosis), 52.4 °C.
For “MAEERPGAWFGFGFCGFGQELGSGRGRQVHSPSPLRAGVDICRVSASWSYTAFVTRGGRLELSGSASGAAGRCKDAWASEGLLAVLRAGPGPEALLQVWAAESALRGEPLWAQNVVPEAEGEDDPAGEAQAGRLPLLPCARAYVSPRAPFYRPLAPELRARQLELGAEHALLLDAAGQVFSWGGGRHGQLGHGTLEAELEPRLLEALQGLVMAEVAAGGWHSVCVSETGDIYIWGWNESGQLALPTRNLAEDGETVAREATELNEDGSQVKRTGGAEDGAPAPFIAVQPFPALLDLPMGSDAVKASCGSRHTAVVTRTGELYTWGWGKYGQLGHEDTTSLDRPRRVEYFVDKQLQVKAVTCGPWNTYVYAVEKGKS [RCCD1]”, in series [1], the “solubility in G1/S (log2)” value is 0.0194. In addition, the “solubility change mitosis (log2)” value in series [2] is -0.0463. Moreover, the thermal stability score in series [3] (setting [5]) was -0.546; in series [3] (cell cycle stage: mitosis), -1.48. Besides, the melting temperature in series [4] (cell cycle stage: G1/S) was 51.8 °C; in series [4] (cell cycle stage: mitosis) it was 54 °C.
Consider “MSQSKGKKRNPGLKIPKEAFEQPQTSSTPPRDLDSKACISIGNQNFEVKADDLEPIMELGRGAYGVVEKMRHVPSGQIMAVKRIRATVNSQEQKRLLMDLDISMRTVDCPFTVTFYGALFREGDVWICMELMDTSLDKFYKQVIDKGQTIPEDILGKIAVSIVKALEHLHSKLSVIHRDVKPSNVLINALGQVKMCDFGISGYLVDSVAKTIDAGCKPYMAPERINPELNQKGYSVKSDIWSLGITMIELAILRFPYDSWGTPFQQLKQVVEEPSPQLPADKFSAEFVDFTSQCLKKNSKERPTYPELMQHPFFTLHESKGTDVASFVKLILGD [MAP2K6]”, for which the “solubility in G1/S (log2)” value in series [1] was 0.225. Besides, the “solubility change mitosis (log2)” value in series [2] is -0.158. For the same sequence, the results for the thermal stability score in series [3] (setting [5]) and in series [3] (cell cycle stage: mitosis) were 1.49 and 0.537, respectively. The melting temperature came to 51.4 °C in series [4] (cell cycle stage: G1/S) and 52.5 °C in series [4] (cell cycle stage: mitosis).
As to “MAAFSEMGVMPEIAQAVEEMDWLLPTDIQAESIPLILGGGDVLMAAETGSGKTGAFSIPVIQIVYETLKDQQEGKKGKTTIKTGASVLNKWQMNPYDRGSAFAIGSDGLCCQSREVKEWHGCRATKGLMKGKHYYEVSCHDQGLCRVGWSTMQASLDLGTDKFGFGFGGTGKKSHNKQFDNYGEEFTMHDTIGCYLDIDKGHVKFSKNGKDLGLAFEIPPHMKNQALFPACVLKNAELKFNFGEEEFKFPPKDGFVALSKAPDGYIVKSQHSGNAQVTQTKFLPNAPKALIVEPSRELAEQTLNNIKQFKKYIDNPKLRELLIIGGVAARDQLSVLENGVDIVVGTPGRLDDLVSTGKLNLSQVRFLVLDEADGLLSQGYSDFINRMHNQIPQVTSDGKRLQVIVCSATLHSFDVKKLSEKIMHFPTWVDLKGEDSVPDTVHHVVVPVNPKTDRLWERLGKSHIRTDDVHAKDNTRPGANSPEMWSEAIKILKGEYAVRAIKEHKMDQAIIFCRTKIDCDNLEQYFIQQGGGPDKKGHQFSCVCLHGDRKPHERKQNLERFKKGDVRFLICTDVAARGIDIHGVPYVINVTLPDEKQNYVHRIGRVGRAERMGLAISLVATEKEKVWYHVCSSRGKGCYNTRLKEDGGCTIWYNEMQLLSEIEEHLNCTISQVEPDIKVPVDEFDGKVTYGQKRAAGGGSYKGHVDILAPTVQELAALEKEAQTSFLHLGYLPNQLFRTF [DDX1]”, in series [1], the “solubility in G1/S (log2)” value was -0.286. Further, in series [2], the “solubility change mitosis (log2)” value turned out to be 0.00283. Further, the figures for the thermal stability score in series [3] (setting [5]) and in series [3] (cell cycle stage: mitosis) were 0.00991 and 0.413, respectively. Further, the results for the melting temperature in series [4] (cell cycle stage: G1/S) and in series [4] (cell cycle stage: mitosis) were 50.7 °C and 50.9 °C, respectively.
